This is an account of results in paper PMC7969025.

One data set deals with T1, P54nrb (UniProt Q15233 1-471).
T1 sequence: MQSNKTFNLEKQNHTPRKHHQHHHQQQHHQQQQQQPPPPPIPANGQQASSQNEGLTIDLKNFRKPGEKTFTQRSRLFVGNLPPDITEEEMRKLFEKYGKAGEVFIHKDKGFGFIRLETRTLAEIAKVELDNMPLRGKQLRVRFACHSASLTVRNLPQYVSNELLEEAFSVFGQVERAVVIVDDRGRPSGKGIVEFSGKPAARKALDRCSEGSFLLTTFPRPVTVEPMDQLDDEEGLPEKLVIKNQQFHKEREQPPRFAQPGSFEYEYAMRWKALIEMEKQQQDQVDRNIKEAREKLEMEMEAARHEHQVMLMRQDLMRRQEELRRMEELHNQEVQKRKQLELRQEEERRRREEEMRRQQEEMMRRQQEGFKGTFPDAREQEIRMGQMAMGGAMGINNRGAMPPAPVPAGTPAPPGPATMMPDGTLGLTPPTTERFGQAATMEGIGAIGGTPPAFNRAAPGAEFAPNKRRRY
The experiment in a line: thermal shift.

Data set [1] concerns the target T2, H1-NTD (hybrid binding domain) (UniProt O60930 27-73).
T2 chain: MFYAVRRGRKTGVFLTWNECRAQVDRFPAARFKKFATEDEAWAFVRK
Description: thermal shift.

CTGCTAGCCTCTGGATTTGA (XNA, PS; 5-10-5 2'-F gapmer) [404130 5-10-5 F PS-ASO]: the binding result with P54nrb is “binds”.

As for GCTAGCCTCTGGATTT (XNA, PS; 3-10-3 2'-F gapmer) [760614 3-10-3 F PS-ASO], the binding result in data set [1] is “binds”.
